Assay results: patent US20210230599, “STEM-LOOP COMPOSITIONS AND METHODS FOR INHIBITING INTERLEUKIN-8” (VITRISA THERAPEUTICS, INC., published 2021)

B1: Aptamer 151 (ssRNA)
RNA: GGCGACGGUAGAUUAUGGGAAGUGUGACCGCGCC
modifications: 2'-F G, 2'-OMe A/C/U, 5' C6NH2, 3' idT
B2: Aptamer 146 (ssRNA)
RNA: GAUGACGGUAGAUUAUGGGCAGUGUGACCGCAUC
modifications: 2'-F G, 2'-OMe A/C/U, 5' C6NH2, 3' idT
B3: Aptamer 152 (ssRNA)
RNA: GCGACGGUAGAUUAUGGGAAGUGUGACCGCGC
modifications: 2'-F G, 2'-OMe A/C/U, 5' C6NH2, 3' idT
B4: Aptamer 142 (ssRNA)
RNA: GAUGACGGUAGAUUUCGGGUAGUGUGACCGCAUC
modifications: 2'-F G, 2'-OMe A/C/U, 5' C6NH2, 3' idT
B5: Aptamer 150 (ssRNA)
RNA: GAUGACGGUAGAUUAUGGGAAGUGUGACCGCAUC
modifications: 2'-F G, 2'-OMe A/C/U, 5' C6NH2, 3' idT
B6: Aptamer 43 (ssRNA)
RNA: GCGACGGCAGAUUACGGGUAGAGUGGCCGCGC
modifications: 2'-F G, 2'-OMe A/C/U, 5' C6NH2, 3' idT
B7: Aptamer 172 (ssRNA)
RNA: CGGUGGGAAAUGUGGGAUGGGUUGCCG
modifications: 2'-F G, 2'-OMe A/C/U, 5' C6NH2, 3' idT
B8: Aptamer 171 (ssRNA)
RNA: CGGUGGGAAAUGUGCGAUGGGUUGCCG
modifications: 2'-F G, 2'-OMe A/C/U, 5' C6NH2, 3' idT
B9: Aptamer 178 (ssRNA)
RNA: CGGUGGGAAAUGUGAGGUGGGUUGCCG
modifications: 2'-F G, 2'-OMe A/C/U, 5' C6NH2, 3' idT
B10: Aptamer 168 (ssRNA)
RNA: CGGUGGGAAAUGUCAGAUGGGUUGCCG
modifications: 2'-F G, 2'-OMe A/C/U, 5' C6NH2, 3' idT
B11: Aptamer 180 (ssRNA)
RNA: CGGUGGGAAAUGUGAGAGGGGUUGCCG
modifications: 2'-F G, 2'-OMe A/C/U, 5' C6NH2, 3' idT
B12: Aptamer 174 (ssRNA)
RNA: CGGUGGGAAAUGUGACAUGGGUUGCCG
modifications: 2'-F G, 2'-OMe A/C/U, 5' C6NH2, 3' idT
B13: Aptamer 147 (ssRNA)
RNA: GGCGACGGUAGAUUAUGGGCAGUGUGACCGCGCC
modifications: 2'-F G, 2'-OMe A/C/U, 5' C6NH2, 3' idT
B14: Aptamer 269 (ssRNA)
RNA: GGCGACGGUAGAUUAUGGGCAGUGUGACCGCGCC
modifications: 2'-OMe A/C/U, 2'-OMe G in stems S1, S2 and loop L2, 2'-F at other G, 5' C6NH2, 3' idT
B15: Aptamer 169 (ssRNA)
RNA: CGGUGGGAAAUGUAAGAUGGGUUGCCG
modifications: 2'-F G; 2'-OMe A,C,U; 5' C6NH2; 3' idT
B16: Aptamer 175 (ssRNA)
RNA: CGGUGGGAAAUGUGAAAUGGGUUGCCG
modifications: 2'-F G; 2'-OMe A,C,U; 5' C6NH2; 3' idT
B17: Aptamer 179 (ssRNA)
RNA: CGGUGGGAAAUGUGAGUUGGGUUGCCG
modifications: 2'-F G; 2'-OMe A,C,U; 5' C6NH2; 3' idT
B18: Aptamer 170 (ssRNA)
RNA: CGGUGGGAAAUGUUAGAUGGGUUGCCG
modifications: 2'-F G; 2'-OMe A,C,U; 5' C6NH2; 3' idT
B19: Aptamer 176 (ssRNA)
RNA: CGGUGGGAAAUGUGAUAUGGGUUGCCG
modifications: 2'-F G; 2'-OMe A,C,U; 5' C6NH2; 3' idT
B20: Aptamer 173 (ssRNA)
RNA: CGGUGGGAAAUGUGUGAUGGGUUGCCG
modifications: 2'-F G; 2'-OMe A,C,U; 5' C6NH2; 3' idT

target: T1, Interleukin-8 (IL8, CXCL8), C-terminal His-tagged (Homo sapiens, UniProt P10145 SEQ:1-72); assay: competition; competition TR-FRET; conditions: tags: C-terminal 6xHis (Sino Biological)
Method: (§1) Activity of each of these variants were tested using a time resolved competition TR-FRET assay in which the labeled parent Aptamer 3 was competed with increasing concentrations of unlabeled variants for binding to IL8 (FIG. 14). Briefly, 2-fold dilutions of thermally equilibrated aptamers were made in TR-FRET Buffer (50 mM MOPS, pH 7.4, 125 mM NaCl, 5 mM KCl, 50 μM CHAPS, 0.1 mg/mL BSA, 1 mM CaCl₂, and 1 mM MgCl₂). 5 μL of aptamer or control solution was added to 5 μl mix of 10 nM C-terminal His-tagged-IL8, 60 nM ALEXA FLUOR® 647-labeled Aptamer, and 5 nM anti-His-Eu (Perkin Elmer) in a black wall low volume 384 well plate (Greiner). For control, 5 μl of 1000-fold excess of unlabeled parent aptamer or 5 μl TR-FRET buffer alone was added to the mix of ALEXA FLUOR® 647-labeled aptamer, His-IL8, and anti-His-Eu. The plate was covered with a plate seal and subsequently incubated in the dark for 1 hour at room temperature. The plate was read on a Biotek CYTATION™ 5 plate reader. Samples were excited at 330 nm and fluorescent values were collected at 665 nm. Data analysis was performed by subtracting the background value and plotting as percent inhibition, normalized to baseline in the absence of competitor. The values were fit by [Inhibitor] vs. response—Variable slope (four parameters) using GraphPad Prism Version 7.0 and then normalized to aptamer control to obtain an IC₅₀ relative to parent aptamer. Data is presented as log values of relative IC₅₀.
Variants of Aptamers 94, 99, and 100 were synthesized with an optimized stem S1 and G18 was also replaced with a Sp3 spacer to see if further improvements could be made to these molecules (Table 30 and FIG. 20).

Question: Does B1 bind?
Answer: Result: binds

Question: Does B2 bind?
Answer: Result: binds

Question: Does B3 bind?
Answer: Result: binds

Question: Does B4 bind?
Answer: Result: binds

Question: Does B5 bind?
Answer: Result: binds

target: T1, Interleukin-8 (IL8, CXCL8), C-terminal …; assay: competition; competition TR-FRET; conditions: tags: C-terminal 6xHis (Sino Biological); remark: another data set of the same source
Method: as §1, with “To better understand the sequence requirements and to confirm the stem structures of members of the Aptamer 3 family as determined from sequence covariation analysis from both the primary and secondary (degenerate) selections, a series of variants which included mutations and deletions to the predicted stems were synthesized and screened (Table 24). Activity” for “Activity”

Question: For B6, which binding signal is on record?
Answer: Its binding signal is greater than 10 fold worse than Aptamer 3.

target: T1, Interleukin-8 (IL8, CXCL8), C-terminal …; assay: competition; competition TR-FRET; L2 mutant; conditions: tags: C-terminal 6xHis (Sino Biological)
Method: as §1
(§2) Like L1, most of L2 was also found to be 100% conserved in the degenerate selection, except residue U20, which was ˜92% conserved (FIG. 31). To test sequence requirements of L2, variants of Aptamer 32 were made, where each position of L2 was individually replaced with the other 3 bases and tested for binding in the competition TR-FRET assay.

Question: With B7 as the binder, how does the binding signal read?
Answer: The binding signal was greater than 10 fold worse than Aptamer 8.

Question: Which binding signal does the source give for B8 here?
Answer: The binding signal was greater than 10 fold worse than Aptamer 8.

Question: With B9 as the binder, how does the binding signal read?
Answer: Its binding signal is greater than 10 fold worse than Aptamer 8.

Question: Which binding signal does the source give for B10 here?
Answer: Its binding signal is greater than 10 fold worse than Aptamer 8.

Question: How did the binding signal turn out when B11 was run?
Answer: The binding signal was greater than 10 fold worse than Aptamer 8.

Question: For B12, which binding signal is on record?
Answer: Its binding signal is greater than 10 fold worse than Aptamer 8.

target: T1, Interleukin-8 (IL8, CXCL8), C-terminal …; assay: TR-FRET, 500 pM IL8, protein-limited; estimated about 20 pM; conditions: tags: C-terminal 6xHis (Sino Biological); label: Alexa Fluor 647; stem-loop
Method: Under these assay conditions, the ability to measure the affinity accurately is limited by the input IL8 protein concentration, and the apparent Kd under these protein-limiting conditions was determined to be 8 nM.

Question: With B13 as the binder, how does the Kd read?
Answer: The Kd was 110 pM.

Question: How did the Kd turn out when B14 was run?
Answer: Its Kd is 126 pM.

target: T1, Interleukin-8 (IL8, CXCL8), C-terminal …; assay: competition; competition TR-FRET; conditions: tags: C-terminal His (Sino Biological); stem-loop
Method: To better understand the sequence requirements and to confirm the stem structures of members of the Aptamer 3 family as determined from sequence covariation analysis from both the primary and secondary (degenerate) selections, a series of variants which included mutations and deletions to the predicted stems were synthesized and screened (Table 24). […] Briefly, 2-fold dilutions of thermally equilibrated aptamers were made in TR-FRET Buffer (50 mM MOPS, pH 7.4, 125 mM NaCl, 5 mM KCl, 50 μM CHAPS, 0.1 mg/mL BSA, 1 mM CaCl₂, and 1 mM MgCl₂). 5 μL of aptamer or control solution was added to 5 μl mix of 10 nM C-terminal His-tagged-IL8, 60 nM ALEXA FLUOR® 647-labeled Aptamer, and 5 nM anti-His-Eu (Perkin Elmer) in a black wall low volume 384 well plate (Greiner). For control, 5 μl of 1000-fold excess of unlabeled parent aptamer or 5 μl TR-FRET buffer alone was added to the mix of ALEXA FLUOR® 647-labeled aptamer, His-IL8, and anti-His-Eu. The plate was covered with a plate seal and subsequently incubated in the dark for 1 hour at room temperature. The plate was read on a Biotek CYTATION™ 5 plate reader. Samples were excited at 330 nm and fluorescent values were collected at 665 nm. Data analysis was performed by subtracting the background value and plotting as percent inhibition, normalized to baseline in the absence of competitor. The values were fit by [Inhibitor] vs. response—Variable slope (four parameters) using GraphPad Prism Version 7.0 and then normalized to aptamer control to obtain an IC₅₀ relative to parent aptamer. Data is presented as log values of relative IC₅₀.
as §2

Question: How did the binding signal turn out when B15 was run?
Answer: Its binding signal is greater than 10 fold worse than Aptamer 8.

Question: How did the binding signal turn out when B16 was run?
Answer: The binding signal was greater than 10 fold worse than Aptamer 8.

Question: B17 was tested. Which binding signal did it give?
Answer: Its binding signal is greater than 10 fold worse than Aptamer 8.

Question: For B18, which binding signal is on record?
Answer: Its binding signal is greater than 10 fold worse than Aptamer 8.

Question: B19 was tested. Which binding signal did it give?
Answer: Its binding signal is greater than 10 fold worse than Aptamer 8.

Question: Which binding signal does the source give for B20 here?
Answer: Its binding signal is greater than 10 fold worse than Aptamer 8.
